# From the DeepSol protein solubility set
# Assay: soluble on expression in E. coli; label from the status in PepcDB or PDB records
row,Sequence,soluble on expression in E. coli
1,KELIMCLSGSILRSATQQYSVGDYIEINGLRGRVVDINLLNTLMMQVGPNPLVGQLAGTTVSFPNSLLLSHPVRRDNILGDYVIHTVEIPVPIHLDSDEAVCRLKAVLEPLCAPYIPAIQRHLENVQAEKLFITPAARPRVTRVPYDDKAYRIIVRFASPVSKRLEIQQAVMDEFLRVQYRLLNHPAGSETL,not soluble
2,KETKTTVHKFGLEPPSELIQKQLRANLDDDIWEVIRSRKIDGEHVILDKDYFFRKHVPHLTKEICENSIYEYIEGELGLSISYAQKEIVAEPCTDEDRELLDLRGYDHMVVVRNYVFLEDTSLFQYTESRHRL,not soluble
3,KETVPYQIPYTPSELEELQQNIKLELEGKEQELALELLNYLNEKGFLSKSVEEISDVLRCSVEELEKVRQKVLRLE,soluble
4,KGFSSEDKGEWKLKLDASGNGQAVIRFLPAKTDDALPFAILVNHGFKKNGKWYIETCSSTHGDYDSCPVCQYISKNDLYNTNKTEYSQLKRKTSYWANILVVKDPQAPDNEGKVFKYRFGKKIWDKINAMIAVDTEMGETPVDVTCPWEGANFVLKVKQVSGFSNYDESKFLNQSAIPNIDDESFQKELFEQMVDLSEMTSKDKFKSFEELNTKFNQVLGTAALGGAAAAAAS,soluble
5,KHPNNAIIIGDNLDALKLLKSAYSEKIKMIYIDPPYNTGNDEFIYPDNFRQDYQKILREVGLMEIDENGKEIESESLKFFKNTQGSGTHSGWLSFMLPRLKLARDLLKEDGVIFISIDDNECANLKILCDEIFGEDNFVGDFIRKTKSTTNDAKIGLNYQHEFLLCYAKDKNYTNLLGGEKNLENYKNPDNDPNGAWINDNPSAKSGNMKTGYFGVTNPYTNKVDYPPVGMFWRFSQNTIQKHIDEGRICFKKEHKDNERGFIYKRYLKDLKTTQKTFDSLIFSDNCYMNQAATKELLNLGMGEYFTYPKGVEFMKKIILHSTTPNEGDIILDFFAGSGTTVHAVMELNAEDKGNREFILVQIDEEIKEDESAYDFCKKELKSAKPVISDITIERVKRAAQKISQLSKDSGLDLGFKVYTLQDKVQII,not soluble
6,KIPEFRDVLISTIGGPHAKLGYEIARALVEDKSGRIKLLYVGSSEKEREKAEKVFEEAMEILNGLNVEREFAISSSPSDVVAREAESFDLVIVGASERTFLKNFLTGLFPEKVVMKTSKTVAMTRKWVGLLNR,not soluble
7,KKAQLIVAGIGPGSPEDITPAVIQAVKNSDVVIGYKYYFQFIEPYLEPGTECIDTGMKREKARAEQAFELAEQGKTVCVISSGDAGIYGMAPLVYEMKRERGSRVEIEVLPGIS,not soluble
8,KKHTGYVGLKNQGATCYMNSLLQTLFFTNQLRKAVYMMPTEGDDSSKSVPLALQRVFYELQHSDKPVGTKKLTKSFGWETLDSFMQHDVQELCRVLLDNVENKMKGTCVEGTIPKLFRGKMVSYIQCKEVDYRSDRREDYYDIQLSIKGKKNIFESFVDYVAVEQLDGDNKYDAGEHGLQEAEKGVKFLTLPPVLHLQLMRFMYDPQTDQNIKINDRFEFPEQLPLDEFLQKTDPKDPANYILHAVLVHSGDNHGGHYVVYLNPKGDGKWCKFDDDVVSRCTKEEAIEHNYGGHDDDLSVRHCTNAYMLVYIRESKLSEVLQAVTDHDIPQQLVERLQEEKRIEAQKRKERQE,soluble
9,KKILVIGDLIADYYLWGKSERLSPEAPVPVLEVQRESKNLGGAANVANNLISLKAKVFLCGVVGDDLEGEHFISALKARGIDASGILIDKTRCTTLKTRIIAQNQQIARVDKEIKDPLNADLRKKLLDFFTEKIQEIDGVILSDYNKGVLDFELTQAMIALANQHHKLILCDPKGKDYSKYSHASLITPNRTELEHALHLKLDSHANLSKALQILKETYHIAMPLVTLSEQGIAFLEKGELVNCPTIAKEVYDVTGAGDTVIASLTLSLLESMSLKDACEFANAAAAVVVGKMGSALASLEEIALILNQTHPKILSLE,not soluble
10,KKKPLIGMVHLKPLPGSYHYNDNFDDIVDFAIKEAKKLEEAGFDAVMIENFGDAPFKKEADKITIASMAVIAKAIKEEVSLPLGINILRNDAIGAYSIAYVVKADFIRVNVLSGVAFTDQGIIEGKAYELAKLKKLLPSKIKVFADVHVKHAYHFIDFESSLLDTVERGLADAVIISGKRTGKEVDIEKLKLAKELVDVPVIVGSGTNYNNLRILWSYADGFIIGTWIKKDGKANNEIDIDRAKKIVNLANKLKM,not soluble
11,KKLLLIGAGRISYYLLNILKNNRIKVKLIEQKMDRAQTFSQVFPEVSVILGDGTAKDLLLEESAASYDAVATLTGVDEENIITSMFLESLGVHKNITKVNRTSLLEIVDTRETTTIVTPKSIAVDTVMHFVRGHYNA,not soluble
12,KKNLLYLGLTGYLLFALCTRLQAQTDSLQAHRYVTRATMYGVGFTNVFDTYLSPQEYKGIDFRISRETIRMTKLFDGNVSVQNFFQADVGYTHNRADNNNTFSGLVNWNYGLHYQFRLTENFKLLAGGLFDVNGGFVYNLRNSNNPASARAYVNLDASGMAIWHLKIKRYPMVLRYQVNVPMIGLMFSPHYGQSYYEIFSLGNSSGVIQFTSLHNQPSLRQMLSVDLPIGYTKMRFSYLADLQQSNVNGIKTHTYSHVFMVGFVKDLYRVSNKKGANLPPSVRAY,not soluble
13,KLKDIAKKILVGGEKPSDFQKEKDQVYKYPILSNSRKADDFLGYSKTFRIAEKSITVSARGTIGAVFYRDFSYLPAVSLICFIPKPEFNINFLFHALKATKFHKQGSGTGQLTMAQFKEYQVYIPSLKKQQEIAATLDP,soluble
14,KMKLYNFWRSGTSHRLRIALNLKGVPYEYLAVHLGKEEHLKDAFKALNPQQLVPALDTGAQVLIQSPAIIEWLEEQYPTPALLPADADGRQRVRALAAIVGCDIHPINNRRILEYLRKTFGADEAAINAWCGTWISAGFDAYEALLAVDPKRGRYSFGDTPTLADCYLVPQVESARRFQVDLTPYPLIRAVDAACGELDAFRRAAPAAQPDSA,soluble
15,KNYDLSDLPGPPSKPQVTDVTKNSVTLSWQPGTPGTLPASAYIIEAFSQSVSNSWQTVANHVKTTLYTVRGLRPNTIYLFMVRAINPQGLSDPSPMSDPVRTQD,soluble
16,KPGAPWWKSAVFYQVYPRSFKDTNGDGIGDFKGLTEKLDYLKGLGIDAIWINPHYASPNTDNGYDISDYREVMKEYGTMEDFDRLMAELKKRGMRLMVDVVINHSSDQHEWFKSSRASKDNPYRDYYFWRDGKDGHEPNNYPSFFGGSAWEKDPVTGQYYLHYFGRQQPDLNWDTPKLREELYAMLRFWLDKGVSGMRFDTVATYSKTPGFPDLTPEQMKNFAEAYTQGPNLHRYLQEMHEKVFDHYDAVTAGEIFGAPLNQVPLFIDSRRKELDMAFTFDLIRYDRALDRWHTIPRTLADFRQTIDKVDAIAGEYGWNTFFLGNHDNPRAVSHFGDDRPQWREASAKALATVTLTQRGTPFIFQGDELGMTNYPFKTLQDFDDIEVKGFFQDYVETGKATAEELLTNVALTSRDNARTPFQWDDSANAGFTTGKPWLKVNPNYTEINAAREIGDPKSVYSFYRNLISIRHETPALSTGSYRDIDPSNADVYAYTRSQDGETYLVVVNFKAEPRSFTLPDGMHIAETLIESSSPAAPAAGAASLELQPWQSGIYKVK,soluble
17,KPPDPPNRVPEKKVVETSAFGHHVQLVNREGKAVGFIEIKESDDEGLDIHISANSLRPGASLGFHIYEKGSCVRPDFESAGGHFNPLNKEHGFNNPMGHHAGDLPNLEVGADGKVDVIMNAPDTSLKKGSKLNILDEDGSAFIIHEQADDYLTNPSGNSGARIVCGALLGNNEKQ,soluble
18,KPTEPHQFAQQVLYDLDQQPRIIAQLSHQQPMLLYFWGTWCRYCQFTSAAVQQLANEKIPILTIALKSGDEQDISNNYLTQQKYTFPTINDPDGNIAKNWTIQATPTIIFIKDGKIVEYTTGLTSYWGLKSRLW,not soluble
19,KRELTVLDLHPGAGKTRRVLPQLVREAVKKRLRTVILAPTRVVASEMYEALRGEPIRYMTPAVQSERTGNEIVDFMCHSTFTMKLLQGVRVPNYNLYIMDEAHFLDPASVAARGYIETRVSMGDAGAIFMTATPPGTTEAFPPSNSPIIDEETRIPDKAWNSGYEWITEFDGRTVWFVHSIKQGAEIGTCLQKAGKKVLYLNRKTFESEYPKCKSEKWDFVITTDISEMGANFKADRVIDPRKTIKPILLDGRVSMQGPIAITPASAAQRRGRIGRNPEKLGDIYAYSGNVSSDNEGHVSWTEARMLLDNVHVQGGVVAQLYTPEREKTEAYEGEFKLKTNQRKVFSELIRTGDLPVWLAFQVASANVEYHDRKWCFDGPNEHLLLENNQEIEVWTRQGQRRVLKPRWLDGRITSDHLNLKSFKEFASGKR,soluble
20,KTLPRDEKEKQIADSKERLKSDTQKVKDAKNADAIKKAFEEGKVNIPQAHIPGDLNKDKEKLLAELKQKADDTEKAIDVDKT,not soluble
21,LAIFLIDLPPSDMERRLGDALTVYVDAMRYPRGTETLRAPMWLEHIRRRGWQAVAAVEVTAAEQAEAADTTALPSAAELSNAPMLGVAYGYPGAPGQWWQQQVVLGLQRSGFPRLAIARLMTSYFELTELHILPRAQGRGLGEALARRLLAGRDEDNVLLSTPETNGEDNRAWRLYRRLGFTDIIRGYHFAGDPRAFAILGRTLPL,not soluble
22,LDFDILTNDGTHRNMKLLIDLKNIFSRQLPKMPKEYIVKLVFDRHHESMVILKNKQKVIGGICFRQYKPQRFAEVAFLAVTANEQVRGYGTRLMNKFKDHMQKQNIEYLLTYADNFAIGYFKKQGFTKEHRMPQEKWKGYIKDYDGGTLMECYIHPYVDYGR,soluble
23,LDNEMLTLDIVASDLLTLQALNAARLKEAGAVDATFVTKAINEQPLNLGQGIWLSDSAEGNLRSAIAVSRAANAFDVDGETAAMLVSVAMNDDQPIAVLKRLADLLLDNKADRLLKADAATLLALLTSDDAPTDDV,not soluble
24,LEQVNDKRISPLRPMRLRLIPLKCKTQPKKGKLSLQSVQKIYVNPRSNGTFKRVPLAGDLFKSRMRQPERDMQKNKLHDSDWQSNM,soluble
25,LFTESAKAVLAIAQEEAKYFRHQSVGSEHLLLALVLEPNGIAGKTLRQLNTDTEDIREEIEHLSGYGTMQSPMGNNNLYLPYSPRAKQIFAYAGDEAKRLGAQKIGTEHLLLGLLRDEEILASRILVNLGLSLSKMRQLLLKKMG,not soluble
26,LGRLFGTDGVRGVANLELTAELAYKLGQAGAYVLTSETKHTPKILVGMDTRISGDMLEASLVAGLCSVGAEVACLGIAPTPTVAYLTRYYNADAGVVISASHNPYEFNGIKFFNSKGYKLSDALEERIESIILDNSEKIQLPTGEKIGRKIEIESPLDDYVNFIKSTIKGDLKGLKVAIDCANGASYQVAPVTFFELGADVCVINNEPDGVNINKDCGSTHIEQLQKFVIESGADVGLAFDGDADRVLAVDENGNMVDGDQIMAIIGLELKKQGKLTNNTIVATVMSNLGLDIMAKREGINIVKTKVGDRYVLENMLENGHVLGGEQSGHIIFLEHSTTGDGILTGAQLLNVVKSSGKKLSELASIMQVLPQVLMNARVSNQNKEKYLEDEVICEMCKELENEFRDEGRVLIRPSGTEPLVRVMIEGKDRDYIEKRALELVKVIEERLG,soluble
27,LGSPMAYFVENFWGEKNSGFDVLYHNMKHGQISTKELADFVRERATIEEAYSRSMTKLAKSASNYSQLGTFAPVWDVFKTSTEKLANCHLDLVRKLQELIKEVQKYGEEQVKSHKKTKEEVAGTLEAVQTIQSITQALQKSKENYNAKCVEQERLKKEGATQREIEKAAVKSKKATDTYKLYVEKYALAKADFEQKMTETAQKFQDIEETHLIHIKEIIGSLSNAIKEIHLQIGQVHEEFINNMANTTVESLIQKFAESKGTGKERPGLIEFEECD,soluble
